# Data as given in patent publication US7407939.
# Where no end group is shown, it is not given here. Side-chain parts run from the residue outwards. [ ]: non-standard residue; d: D form. The star is where a group is joined. X1 = 5‑aminoethylsulfonamide isoquinoline, O=S(=O)(NCCN*)c1cccc2cnccc12; hLeu = CC(C)CC[C@H](N)C(=O)O; Nle = CCCC[C@H](N)C(=O)O; Orn = NCCC[C@H](N)C(=O)O; Dab = NCC[C@H](N)C(=O)O; Nva = CCC[C@H](N)C(=O)O; Abu = CC[C@H](N)C(=O)O; Dap = NC[C@H](N)C(=O)O; GlyNH2 = aminoglycine; βAla = NCCC(=O)O
# B1: TY-60020-59 (peptide)
# peptide: RPR[Nle]E([Gly-X1])[Orn]F
# modifications: not fully specified (C-terminus)
# B2: 60006-18A (peptide)
# peptide: RPR[Nva]GA[hLeu]
# B3: TY-60020-58 (peptide)
# peptide: RPR[Nle]E([Gly-X1])[Dab][hLeu]
# modifications: not fully specified (C-terminus)
# B4: 60005-75 (peptide)
# peptide: RPR[Nva]S[GlyNH2][hLeu]
# B5: TY-60020-9 (peptide)
# peptide: RPR[Orn]E(X1)[Dab]F
# modifications: not fully specified (C-terminus)
# B6: 60002-38 (peptide)
# peptide: RPR[Nva]SAF
# B7: TY-60020-57 (peptide)
# peptide: RPR[Nle]E([Gly-X1])[Dab]F
# modifications: not fully specified (C-terminus)
# B8: 60002-88 (peptide)
# peptide: RPRT[Abu][Dap]F
# B9: TY-60020-11 (peptide)
# peptide: RPR[Orn]E(X1)[Orn]F
# modifications: not fully specified (C-terminus)
# B10: 60005-32 (peptide)
# peptide: RPRT[GlyNH2]A[hLeu]
# B11: 60005-84 (peptide)
# peptide: RPR[Nva]TA[hLeu]
# B12: TY-60020-10 (peptide)
# peptide: RPR[Orn]E(X1)[Dab][hLeu]
# modifications: not fully specified (C-terminus)
# B13: TY-60020-95 (peptide)
# peptide: RPR[Nle]E([βAla-X1])[Nva]F
# modifications: not fully specified (C-terminus)
# Target: protein kinase A, catalytic subunit
# Assay: cell-based or functional assay
Binder,% inhibition of kinase activity at 1 µM; PKA-kinase Assay 1 [%],% inhibition of kinase activity at 1 µM; PKA-kinase Assay 2 [%],IC50 PKA [nM],% Inhibition PKA [%],IC50 µM PKA [µM]
B1,92,93,200,–,–
B2,–,–,–,11,> 100
B3,98,99,50,–,–
B4,–,–,–,-4,–
B5,96,97,–,–,–
B6,–,–,–,-2,80
B7,95,96,210,–,–
B8,–,–,–,-3,–
B9,95,96,–,–,–
B10,–,–,–,4,–
B11,–,–,–,7,–
B12,92,94,–,–,–
B13,–,–,2000,–,–

# Target: protein kinase B (UniProt P31749)
# Assay: cell-based or functional assay
# Chain of protein kinase B (P31749 whole entry): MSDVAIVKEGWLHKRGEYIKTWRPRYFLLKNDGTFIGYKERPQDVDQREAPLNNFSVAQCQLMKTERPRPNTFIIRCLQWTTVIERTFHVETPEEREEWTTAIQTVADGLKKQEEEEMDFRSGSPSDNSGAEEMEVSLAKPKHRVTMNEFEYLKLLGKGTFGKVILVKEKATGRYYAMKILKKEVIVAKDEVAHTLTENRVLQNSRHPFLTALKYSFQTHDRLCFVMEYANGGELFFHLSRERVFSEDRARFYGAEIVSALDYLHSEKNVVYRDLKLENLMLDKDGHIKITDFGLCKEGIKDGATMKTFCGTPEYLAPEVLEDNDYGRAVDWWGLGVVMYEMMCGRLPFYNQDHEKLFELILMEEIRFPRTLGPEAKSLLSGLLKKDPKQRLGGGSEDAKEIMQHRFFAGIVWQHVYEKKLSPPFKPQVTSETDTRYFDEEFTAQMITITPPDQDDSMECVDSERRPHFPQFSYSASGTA
Binder,% inhibition of kinase activity at 1 µM; PKB-kinase (spa) Assay 1 [%],% inhibition of kinase activity at 1 µM; PKB-kinase (spa) Assay 2 [%],IC50 PKB [nM],% Inhibition PKB I [%],% Inhibition PKB II [%],IC50 µM PKB [µM]
B1,62,75,300,–,–,–
B2,–,–,–,47,52,9.45
B3,89,93,120,–,–,–
B4,–,–,–,70,70,–
B5,71,57,–,–,–,–
B6,–,–,–,43,–,18
B7,92,93,70,–,–,–
B8,–,–,–,40,–,–
B9,58,52,–,–,–,–
B10,–,–,–,43,44,–
B11,–,–,–,39,48,–
B12,45,48,–,–,–,–
B13,46,90,3300,–,–,–
